Measurements published in the supplement of paper PMC12042874.
± gives the uncertainty stated by the source.

Test: amyloid nucleation score (Sup35N fusion, yeast selection) (log enrichment); library NNK3; higher = more nucleation; inactive = no reads after selection
Method in brief: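 Sup35N fusions to peptides of 20 random codons were expressed in psi-negative yeast, induced 24 hours with 100 μM copper sulfate, and grown 7 days at 30°C on medium lacking adenine and uracil. Input and output plasmid inserts were sequenced by Illumina. The nucleation score is the DiMSum log enrichment of output over input reads, centred on the mode score of non-aggregating sequences. Sequences with under 100 input reads were excluded.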

Substance	amyloid nucleation score
LSRLGWYRFCTIMGCYFWIL	inactive
LSRRNFIRNNVVQ	inactive
LSRSWCWRR	inactive
LSSLVSSSTSCWLWIRTNRL	inactive
LSSVKCSKWSIFMYMRQYIW	inactive
LSTENLLVYMWDRLNSILKG	inactive
LSTNTKSKTPYNVRMSLTGG	0.49 ± 0.34
LSTWSHPSCDRTYVNLKNIV	inactive
LSVMDGTSYAGCELKNVEGW	inactive
LSVMNSVRTWYIIDFATFSC	inactive
LSWDVYSRHFG	2.31 ± 0.076
LSYFSLLGFRYSRGVMGYQM	inactive
LSYLFFKPFWA	0.357 ± 0.74
LSYNRKEYGNRPGFSEYSST	inactive
LSYSSRTRCMLLSLYWCSIR	inactive
LSYYVS	inactive
LTCPSFCVSRLRESWDESLS	inactive
LTFISLSLGPDSRFSMTKYY	inactive
LTFSSSHCVIMWQFLCKLVG	inactive
LTGFYYFTAYVCPNLILVTR	0.878 ± 0.14
LTGRISIARFEVDLGFGCPS	0.682 ± 0.18
LTLNSKVTDM	inactive
LTMALYWTCSLTHILSYGID	0.062 ± 0.23
LTNRADE	inactive

Substance	amyloid nucleation score
LTRLSRNHVVRWRYIREGGW	inactive
LTSGVNRISQQPWLSLVDIG	inactive
LTVRSHHQAGDMCRRRAISP	inactive
LVASSYS	inactive
LVFHQDMCGNYYFRH	0.953 ± 0.13
LVFHYRARKGLSIIG	inactive
LVGNHVSVAIISLVPLSFPH	2.06 ± 0.067
LVISNIFRPHSVPWIIVENS	inactive
LVKPNVDFVT	inactive
LVKRCVVGFTHFPTIYTCIQ	inactive
LVLWMVDTSFAGSVDVSEMA	inactive
LVMACCNIMKSATMIILYTM	1.26 ± 0.093
LVMKQRLIMLYVKLNKAFLA	inactive
LVNIDLFNDYRAVCGLLTRD	inactive
LVNLAELDFVECCLENKMQW	inactive
LVPIVVGKRFPIYVGVGPKG	inactive
LVRHARNKDNLFGN	inactive
LVSDEPNLGFDN	inactive
LVSFWSVRFIICYLRLGLSC	inactive
LVSKAGLSLRLKG	inactive
LVSVGSIVTSLEFNTGCLWA	inactive
LVVGISRPMSTGSMASWQWR	inactive
LVVIDTIIHCLFKTAQCAWF	inactive
LVVKFSLDKWPRQNVSSLAS	inactive

Substance	amyloid nucleation score
LVVNRDYFCRSVGPIVLLEP	inactive
LVWSSSEVVFFA	inactive
LVWYKSDLISIVRHTVDSCC	inactive
LVYRMMGSWVGPIRVYFNML	inactive
LVYSDCHRIISHWFFRYTWQ	inactive
LWHVF	inactive
LWIIKGYKSYSNHQWNWGM	inactive
LWINCSWMFNWM	2.43 ± 0.07
LWLVIN	inactive
LWMCLLMRRR	inactive
LWTYIWDRFEDPVECLRWWN	inactive
LWVSLFVSDVTRLFCLGFVT	inactive
LWVTM	1.37 ± 0.14
LWYHWHNA	inactive
LWYSCLVSRSSIVSHGWVGL	inactive
LWYYCTQEVIARRDEKA	inactive
LYAFRDSCDTFSC	inactive
LYCCTGEHGSLASVCSSTLT	-0.852 ± 1.5
LYELGQKFLVGHWQRGLKP	inactive
LYGLVWYTQVGLLNVYSKIY	1.24 ± 0.18
LYLAMRENMWFEPEVNGCYG	inactive
LYLGLFVSWCSLKSTAWFGK	inactive
LYLRQKYLRALTNFNFPRAT	inactive
LYLRV	inactive

Substance	amyloid nucleation score
LYLSLFGQVPYSS	-0.473 ± 0.98
LYLTSCDIYGAGTIGRWVAV	inactive
LYMFHCAFILSIFMFHTPVH	inactive
LYMSWAKTLFGECNCSHVLL	inactive
LYNRKHFTSM	-0.638 ± 0.96
LYQRYMDMTSYCS	inactive
LYRVLSYDLRLDKWCYKTLW	inactive
LYSECNDPNKA	inactive
LYSFSANNDMVHMYRNQVRF	inactive
LYTAATLGSTRLAYCKKEWG	inactive
LYTDVEYRVWCVTFLVRPSK	inactive
LYVFCLAILPLDVLRFSLML	inactive
LYVFRCHLVVNDLNATNCSR	inactive
LYVYTMR	inactive
LYWMVSMTTDR	inactive
LYWRSTGVSVWVRWVLYG	inactive
MALEVFF	inactive
MALWASSKAEVIVVIKCLGD	inactive
MAMLS	inactive
MAQIRATIFMMMSANVDRYM	inactive
MAVLHSLFVKVQLMTSNFS	inactive
MCDKV	inactive
MCMSAFEGSSIICDCMVVLL	1.85 ± 0.088
MCMYVKMYLNGSLFVYMTSK	inactive

Substance	amyloid nucleation score
MCQAIDSNTYWYLAHCGNSS	0.494 ± 0.25
MCSAEA	inactive
MCTNYYITCRSKSCVICRRI	2.31 ± 0.059
MDEVWFPSKGCDLAVRNCLM	inactive
MDKYTRTRPQTRGRAVSCYY	inactive
MDLMPSYSTWKLFFKAI	inactive
MDQMPKKYLVLAAAAVVRMV	inactive
MDVVLRINLKQGRYPGTNAH	2.1 ± 0.091
MELSGSIMRIEMLYFFMRHK	inactive
MEVDQTYVRIWC	1.31 ± 0.14
MFFQLVCYFNLSTVMTSYFE	0.593 ± 0.14
MFGNIRTFAPTITCMGDFTL	inactive
MFGWRNSTLAVKAGSDTRLP	inactive
MFKITACIFNIAYSSWFFST	inactive
MFVGP	inactive
MFVRYIAISYWYQLTWEFSV	inactive
MGHDCHRDW	inactive
MGLLSTFFVEFFKT	inactive
MGNFSFE	inactive
MGNYRALCLLLTWLRFLAIE	-0.015 ± 0.96
MGPSVMFCIDLSSWKHLIRL	0.87 ± 0.16
